Data on three molecules can be found in article PMC11993163, “Structure-function studies of a nucleoplasmin isoform from Plasmodium falciparum” (The Journal of Biological Chemistry, 2025).

Data set [1] concerns the molecule itself. Kind of data set: crystal structure; PfNPM NTD at 57 mg/ml, 0.2 M sodium malonate pH 5.0, 20% PEG3350; 3.25 Å, space group P3(1)21, five chains in the asymmetric unit.
Data set [2] deals with the molecule itself. Nature of the data set: AUC; sedimentation velocity, Optima AUC, absorbance at 280 nm 0.2-0.5, continuous size distribution (SEDFIT); PfNPM proteins alone and their histone complexes.
Data set [3] addresses T1, assembled H3/H4 tetramer (UniProt P84233 1-136; P62799 1-103).
T1 construct: core histone H4, codon-optimized construct in pET21a(+), gift of Dr Curtis A. Davey, expressed without a fusion tag; the species of the histones is told nowhere; copies: 2 + 2
Kind of data set: AUC. The following applies: both partners purified.

In data set [4] the target is T2, assembled H2A/H2B dimer (UniProt P06897 1-130; P02281 1-126). Nature of the data set: AUC. As to conditions: both partners purified.
The target in data set [5] is T1, assembled H3/H4 tetramer. Kind of data set: ITC. The following applies: both partners purified.
Data set [6] concerns the target T2, assembled H2A/H2B dimer. Nature of the data set: ITC. As to conditions: both partners purified.

B1: PfNPM NTD (Plasmodium falciparum nucleoplasmin N-terminal core domain, residues 1-98) (domain or fragment, UniProt C0H4U4 1-98, looked up)
chain: MFYGKVVKPDETVVPEVKDGYSVIHLSRACLNNPEHEGKIYVQVEDGNGCYNICCLQKNVCEDTPLDIFLMLDNDVKIKTSGSSNEVHIVGYYEVSFG
notes: PfNPM, nucleoplasmin isoform of Plasmodium falciparum, PlasmoDB PF3D7_0813300, UniProtKB C0H4U4, residues 1-98 of the 315-residue full length; Cloned into pET28a(+) between NcoI and XhoI with a noncleavable C-terminal hexa-histidine tag; Pentamer by crystal structure, SV-AUC and SAXS; also called PfNPM NTD (1-98); not shown: His6, C-terminal, kept
Take B1: the “stoichiometry N” value in data set [1] came to 5.

B2: PfNPM A1 (residues 1-110, up to A1 acidic tract) (domain or fragment, Plasmodium falciparum, UniProt C0H4U4 1-110, looked up)
chain: MFYGKVVKPDETVVPEVKDGYSVIHLSRACLNNPEHEGKIYVQVEDGNGCYNICCLQKNVCEDTPLDIFLMLDNDVKIKTSGSSNEVHIVGYYEVSFGQDNLDEDEDEFE
notes: PfNPM, nucleoplasmin isoform of Plasmodium falciparum, PlasmoDB PF3D7_0813300, UniProtKB C0H4U4, residues 1-110 (NTD and A1 acidic tract); pET28a(+) NcoI/XhoI, noncleavable C-terminal hexa-histidine tag; Pentamer by SV-AUC and SAXS; also called PfNPM (1-110); not shown: His6, C-terminal, kept
In the case of B2, the “stoichiometry N” value in data set [2] was 5; with assembled H3/H4 tetramer [3] it was 1 PfNPM pentamer : H3/H4 tetramer; with assembled H2A/H2B dimer [4] it was 1 PfNPM pentamer : H2A/H2B dimer; with assembled H3/H4 tetramer [5], 1; in the data set with assembled H2A/H2B dimer [6], 1. Also, the equilibrium dissociation constant (Kd) in the data set with assembled H3/H4 tetramer [5] was 58.5 ± 1.76 nM; with assembled H2A/H2B dimer [6] it was 1010 ± 68.6 nM.

B3: PfNPM A3 (residues 1-170, up to A3 acidic tract) (domain or fragment, Plasmodium falciparum, UniProt C0H4U4 1-170, looked up)
chain: MFYGKVVKPDETVVPEVKDGYSVIHLSRACLNNPEHEGKIYVQVEDGNGCYNICCLQKNVCEDTPLDIFLMLDNDVKIKTSGSSNEVHIVGYYEVSFGQDNLDEDEDEFEDEFDNDEVRMLTKKNTLKNSLSNGISKRKKNLENNEDDETNVGRNDEDDDDEDDEDDEDE
notes: PfNPM, nucleoplasmin isoform of Plasmodium falciparum, PlasmoDB PF3D7_0813300, UniProtKB C0H4U4, residues 1-170 (NTD and acidic tracts A1 to A3); pET28a(+) NcoI/XhoI, noncleavable C-terminal hexa-histidine tag; Pentamer by SV-AUC, SAXS and cryo-EM 2D class averages; also called PfNPM (1-170); not shown: His6, C-terminal, kept
In the case of B3, the “stoichiometry N” value in data set [2] is 5; with assembled H3/H4 tetramer [3] it was 1 PfNPM pentamer : H3/H4 tetramer; with assembled H2A/H2B dimer [4], 1 PfNPM pentamer : H2A/H2B dimer; in the data set with assembled H3/H4 tetramer [5], 1; with assembled H2A/H2B dimer [6], 1. Besides, the Kd came out at 38.9 ± 2.2 nM with assembled H3/H4 tetramer [5] and 1000 ± 68.2 nM with assembled H2A/H2B dimer [6].

As a reminder, the stoichiometry N is a count of units in the complex or per binding partner. As usually defined, the Kd is the constant that tells how readily two partners part at equilibrium. A higher Kd goes with lower affinity.
